Experimental findings from patent publication US20070160576A1, “IL-17A/F heterologous polypeptides and therapeutic uses thereof” (Genentech, Inc., priority 2001, published 2007) are described below.

The target of experiment [1] is T1, IL-17R (PRO1) extracellular domain, purified, monomeric (human, UniProt Q96F46 33-320).
T1 construct: extracellular domain; also called human IL-17 receptor
Description: SPR (BIAcore). Here is the method: (§1) Sensorgrams-were obtained for a series of six, two-fold serially diluted protein solutions. The highest concentration used was 1000 or 500 nM protein and the solutions were prepared in the running buffer, PBS containing 0.05% Tween-20. The sensor chip surface was regenerated between binding cycles by injection of a 25 ┘L aliquot of 0.1 M acetic acid, 0.2 M NaCl, pH 3 to elute non-covalent bound protein. Sensorgrams were evaluated according to a 1:1 binding model by non-linear regression analysis using software supplied by the manufacturer. […] The amount of bound receptor was determined from the resonance signal obtained after completion of the association phase.
On the technique in general: Surface plasmon resonance follows binding to a sensor surface in real time, without labels.

Experiment [2] addresses T2, PRO5801 (human IL-17RH1 receptor) (Homo sapiens, UniProt Q9NRM6).
T2 sequence (Q9NRM6 18-502): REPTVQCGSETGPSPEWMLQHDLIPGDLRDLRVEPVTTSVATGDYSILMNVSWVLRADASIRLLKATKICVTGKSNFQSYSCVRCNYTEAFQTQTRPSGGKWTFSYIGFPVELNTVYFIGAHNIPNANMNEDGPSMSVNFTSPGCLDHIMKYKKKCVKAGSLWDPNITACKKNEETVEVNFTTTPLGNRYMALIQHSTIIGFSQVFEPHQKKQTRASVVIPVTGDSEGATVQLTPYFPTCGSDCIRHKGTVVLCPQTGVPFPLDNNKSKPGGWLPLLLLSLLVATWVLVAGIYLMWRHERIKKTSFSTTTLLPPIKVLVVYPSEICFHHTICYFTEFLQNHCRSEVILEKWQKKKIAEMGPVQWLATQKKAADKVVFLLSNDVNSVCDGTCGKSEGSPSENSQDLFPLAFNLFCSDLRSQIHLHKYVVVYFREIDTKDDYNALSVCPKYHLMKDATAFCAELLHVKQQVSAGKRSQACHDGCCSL
Description: Receptor/ligand interaction screening assay (immunoadhesin). The format is binding. Here is the method:
In general, the assay is performed as follows. A PRO polypeptide of the present invention suspected of being a ligand for a receptor is expressed as a fusion protein containing the Fc domain of human IgG (an immunoadhesin). Receptor-ligand binding is detected by allowing interaction of the immunoadhesin polypeptide with cells (e.g. Cos cells) expressing candidate PRO polypeptide receptors and visualization of bound immunoadhesin with fluorescent reagents directed toward the Fc fusion domain and examination by microscope. Cells expressing candidate receptors are produced by transient transfection, in parallel, of defined subsets of a library of cDNA expression vectors encoding PRO polypeptides that may function as receptor molecules. Cells are then incubated for 1 hour in the presence of the PRO polypeptide immunoadhesin being tested for possible receptor binding. The cells are then washed and fixed with paraformaldehyde. The cells are then incubated with fluorescent conjugated antibody directed against the Fc portion of the PRO polypeptide immunoadhesin (e.g. FITC conjugated goat anti-human-Fc antibody). The cells are then washed again and examined by microscope. A positive interaction is judged by the presence of fluorescent labeling of cells transfected with cDNA encoding a particular PRO polypeptide receptor or pool of receptors and an absence of similar fluorescent labeling of similarly prepared cells that have been transfected with other cDNA or pools of cDNA. If a defined pool of cDNA expression vectors is judged to be positive for interaction with a PRO polypeptide immunoadhesin, the individual cDNA species that comprise the pool are tested individually (the pool is “broken down”) to determine the specific cDNA that encodes a receptor able to interact with the PRO polypeptide immunoadhesin.
In another embodiment of this assay, an epitope-tagged potential ligand PRO polypeptide (e.g., 8 histidine “His” tag) is allowed to interact with a panel of potential receptor PRO polypeptide molecules that have been expressed as fusions with the Fc domain of human IgG (immunoadhesins). Following a 1 hour co-incubation with the epitope tagged PRO polypeptide, the candidate receptors are each immunoprecipitated with protein A beads and the beads are washed. Potential ligand interaction is determined by Western blot analysis of the immunoprecipitated complexes with antibody directed towards the epitope tag. An interaction is judged to occur if a band of the anticipated molecular weight of the epitope tagged protein is observed in the Western blot analysis with a candidate receptor, but is not observed to occur with the other members of the panel of potential receptors.

The target in another experiment is T3, IL-17R (Homo sapiens, UniProt Q96F46).
T3 construct: the extracellular domains (ECDs) of either of the two receptors IL-17R (designated PRO1) and IL-17RH1 (PRO5801)
Description: SPR (BIAcore) binding measurements. The settings on record: IL-17R in solution, cytokine immobilized. The protocol: (§2) The kinetics and affinity of IL-17, IL-17E (PRO10272), or IL-17F (PRO20110) binding to IL-17R or IL-17RH1 (PRO5801) were determined by SPR measurements on a Pharmacia BIAcore 1000 instrument (Phamacia Biosensor, Piscataway N.J.). IL-17 ligand or receptor was immobilized onto a flow cell of a CM5 sensor chip via random coupling to amino groups, N-hydroxysuccinimide chemistry, by using a protocol developed by the manufacturer. An immobilization level of about 500 resonance units (RU) was obtained for IL-17R, IL-17RH1, and IL-17F, whereas IL-17 and IL-17E immobilization levels were 1200 and 1500 RU, respectively. A strong signal was obtained for IL-17R binding to immobilized IL-17. […] After blocking unreacted sites with ethanolamine, binding measurements were performed using a flow rate of 25 ┘L/min. Sensorgrams-were obtained for a series of six, two-fold serially diluted protein solutions. The highest concentration used was 1000 or 500 nM protein and the solutions were prepared in the running buffer, PBS containing 0.05% Tween-20. The sensor chip surface was regenerated between binding cycles by injection of a 25 ┘L aliquot of 0.1 M acetic acid, 0.2 M NaCl, pH 3 to elute non-covalent bound protein. Sensorgrams were evaluated according to a 1:1 binding model by non-linear regression analysis using software supplied by the manufacturer. In separate experiments to measure competition between IL-17 variants for binding receptors, a fixed concentration of receptor was incubated with a varied concentration of IL-17 protein followed by injection of this mixture onto a flow cell having immobilized IL-17 protein. The amount of bound receptor was determined from the resonance signal obtained after completion of the association phase.

The target of another experiment is T4, IL-17RH1 (PRO5801) (Homo sapiens, UniProt Q9NRM6).
T4 construct: the extracellular domains (ECDs) of either of the two receptors IL-17R (designated PRO1) and IL-17RH1 (PRO5801)
T4 sequence (Q9NRM6 18-292 limits assumed): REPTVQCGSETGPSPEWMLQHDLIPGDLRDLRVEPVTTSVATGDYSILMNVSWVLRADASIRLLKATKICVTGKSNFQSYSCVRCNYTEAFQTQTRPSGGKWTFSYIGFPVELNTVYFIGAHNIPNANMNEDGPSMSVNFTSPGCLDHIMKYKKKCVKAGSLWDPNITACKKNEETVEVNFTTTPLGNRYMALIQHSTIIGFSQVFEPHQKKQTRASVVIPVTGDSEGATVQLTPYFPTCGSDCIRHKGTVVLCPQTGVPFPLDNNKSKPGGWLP
Description: SPR (BIAcore) binding measurements. The conditions noted are these: for Koff × 10^4: value is Koff × 10^4; for Kon × 10^−5: value is Kon × 10^−5. The protocol:
as §2

The target of the next experiment is T5, IL-17RH1 (Homo sapiens, UniProt Q9NRM6).
T5 construct: the extracellular domains (ECDs) of either of the two receptors IL-17R (designated PRO1) and IL-17RH1 (PRO5801)
T5 sequence (Q9NRM6 18-292 limits assumed): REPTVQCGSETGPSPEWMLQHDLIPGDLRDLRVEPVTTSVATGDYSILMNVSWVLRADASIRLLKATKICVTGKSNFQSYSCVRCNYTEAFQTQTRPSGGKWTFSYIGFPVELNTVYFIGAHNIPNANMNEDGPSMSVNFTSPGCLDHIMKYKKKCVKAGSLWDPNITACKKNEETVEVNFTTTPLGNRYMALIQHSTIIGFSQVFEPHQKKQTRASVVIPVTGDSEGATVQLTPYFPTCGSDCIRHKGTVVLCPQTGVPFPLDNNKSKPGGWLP
Description: SPR competition for receptor binding to immobilized IL-17E. The conditions noted are these: IL-17RH1 31 nM; IL-17F at 1.3 ┘M. The protocol:
as §2, with “The sensor chip surface was regenerated between binding cycles by injection of a 25 ┘L aliquot of 0.1 M acetic acid, 0.2 M NaCl, pH 3 to elute non-covalent bound protein.” left out, “In separate experiments to measure competition between IL-17 variants for binding receptors, a fixed concentration of receptor was incubated with a varied concentration of IL-17 protein followed by injection of this mixture onto a flow cell having immobilized IL-17 protein.” left out, “phase. […]” for “phase.”

Experiment [3] has as its target T6, IL-17RH1 (PRO5801) extracellular domain, purified, monomeric (human, UniProt Q9NRM6 18-292).
T6 construct: extracellular domain
T6 sequence (looked up): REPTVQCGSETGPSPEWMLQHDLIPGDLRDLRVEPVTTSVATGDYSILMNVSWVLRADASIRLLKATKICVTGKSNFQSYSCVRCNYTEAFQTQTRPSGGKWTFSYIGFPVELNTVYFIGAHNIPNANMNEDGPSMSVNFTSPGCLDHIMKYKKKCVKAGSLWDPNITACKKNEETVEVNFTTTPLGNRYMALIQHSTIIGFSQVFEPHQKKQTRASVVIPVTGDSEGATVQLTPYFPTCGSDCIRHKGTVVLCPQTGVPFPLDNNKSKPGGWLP
Description: SPR (BIAcore 1000), IL-17E immobilized, 1:1 model. Here is the method: as §1

In experiment [4] the target is T6, IL-17RH1 (PRO5801) extracellular …. Description: SPR (BIAcore 1000), IL-17RH1 immobilized, 1:1 model.
Experiment [5] has the same target. Description: SPR (BIAcore), IL-17F immobilized. Here is the method:
as §1

For experiment [6], the target named is T7, IL-17R on transfected Cos cells (human, UniProt Q96F46 33-866).
T7 construct: whole, on cells; also called Cos cells transfected with IL-17R
Description: binding to transfected Cos cells; data not shown.

Setting [7] is: immobilized IL-17E, ligand IL-17RH1.
Setting [8] is: immobilized IL-17RH1, ligand IL-17E.

B1: human IL-17E (PRO10272), protein used in SPR (ligand, UniProt Q9H293 33-177, looked up)
chain: YSHWPSCCPSKGQDTSEELLRWSTVPVPPLEPARPNRHPESCRASEDGPLNSRAISPWRYELDRDLNRLPQDLYHARCLCPHCVSLQTGSHMDPRGNSELLYHNQTVFYRRPCHGEKGTHKGYCLERRLYRVSLACVCVRPRVMG
notes: construct not described
Broadly, the Kd is the equilibrium constant for the complex coming apart. A lower Kd goes with a tighter complex. Broadly, the koff is a measure of how fast the partners let go of each other. One may read the kon as the rate constant with which the complex forms. Consider B1, for which the binding result in experiment [1] is listed as “no binding”. Besides, in [2], the “binding to IL-17RH1 receptor (PRO5801)” value is “binds to”. The “SPR binding to IL-17R (in words)” value in the experiment with IL-17R is “no binding was observed”. The “SPR binding to IL-17RH1 (in words)” value with IL-17RH1 (PRO5801) is “high affinity binding”. Also, in the experiment with IL-17RH1 (PRO5801) (setting [7]), the “Koff × 10^4” value was found to be 7.0 s^−1 and the “Kon × 10^−5” value worked out at 6.7 M^−1 s^−1. For the same molecule, in the experiment with IL-17RH1 (PRO5801) (setting [8]), the “Koff × 10^4” value is recorded as 6.2 s^−1 and the “Kon × 10^−5” value is 4.3 M^−1 s^−1. Moreover, the “competition for binding of IL-17RH1 to immobilized IL-17E” value with IL-17RH1 is recorded as “completely inhibited”. Also, in experiment [3], the Kd stood at 1.1 nM, the off-rate (koff) worked out at 0.0007 s⁻¹ and the kon came out at 670000 M⁻¹ s⁻¹. In [4], this molecule came in with an equilibrium dissociation constant (Kd) of 1.4 nM, an off-rate (koff) of 0.00062 s⁻¹ and an association rate constant (kon) of 430000 M⁻¹ s⁻¹.

B2: human IL-17F (PRO20110) (ligand)
chain: RKIPKVGHTFFQKPESCPPVPGGSMKLDIGIINENQRVSMSRNIESRSTSPWNYTVTWDPNRYPSEVVQAQCRNLGCINAQGKEDISMNSVPIQQETLVVRRKHQGCSVSFQLEKVLVTVGCTCVTPVIHHVQ
notes: disulfide-linked homodimer, glycosylated at Asn 53
Turning to B2, the binding result in [5] is reported as “no binding (tested: up to 0.5 µM (printed 0.5 ┘M))”; in [6], “binds”.
